Measured values reported in PMC5522078, “Discovery and characterization of small molecules targeting the DNA-binding ETS domain of ERG in prostate cancer” (Oncotarget, 2017).

Target: T1, ERG-ETS domain (UniProt P11308 307-400)
T1 sequence: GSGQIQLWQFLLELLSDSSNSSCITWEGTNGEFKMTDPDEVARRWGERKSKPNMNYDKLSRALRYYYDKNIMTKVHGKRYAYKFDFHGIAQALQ
Assay: EMSA; no compound; 1 nM DNA; EMSA: protein stored in 20 mM sodium phosphate, 200 mM NaCl, 2 mM DTT, 0.1 mM EDTA, pH 6.5; reaction with 3% glycerol, 0.2 mg/mL BSA, 1 nM dsDNA, room temperature 1 h; 10% native gel run at 10 C
Conditions: protein: recombinant; tags: His6 removed by thrombin; label: Alexa-488; blunt

B1: ETS consensus GGAA probe (dsDNA)
DNA 1: CGGCCAAGCCGGAAGTGAGTG
DNA 2: CACTCACTTCCGGCTTGGCCG
Kd: ~1 nM
